In US20210388087A1 (Chugai, published 2021):

B1: H183/L072 VL T31K (antibody, name in Kabat numbering, V domains shown)
VH: QVQLVESGGGLVQPGRSLRLSCAASGFTFSNAWMHWVRQAPGKGLEWVAQIKDKGNAYAAYYAPSVKGRFTISRDDSKNSIYLQMNSLKTEDTAVYYCHYVHYASASTVLPAFGVDAWGQGTTVTVSS
VL: DIVMTQSPLSLPVTPGEPASISCQASQELVHMNRNKYLHWYQQKPGQAPRLLIYKVSNRFPGVPDRFSGSGSGTDFTLKISRVEAEDVGVYYCAQGTSVPFTFGQGTKLEIK
B2: H183/L072 VL T31V (antibody, name in Kabat numbering, V domains shown)
VH: QVQLVESGGGLVQPGRSLRLSCAASGFTFSNAWMHWVRQAPGKGLEWVAQIKDKGNAYAAYYAPSVKGRFTISRDDSKNSIYLQMNSLKTEDTAVYYCHYVHYASASTVLPAFGVDAWGQGTTVTVSS
VL: DIVMTQSPLSLPVTPGEPASISCQASQELVHMNRNVYLHWYQQKPGQAPRLLIYKVSNRFPGVPDRFSGSGSGTDFTLKISRVEAEDVGVYYCAQGTSVPFTFGQGTKLEIK
B3: H183/L072 VL T92E (antibody, name in Kabat numbering, V domains shown)
VH: QVQLVESGGGLVQPGRSLRLSCAASGFTFSNAWMHWVRQAPGKGLEWVAQIKDKGNAYAAYYAPSVKGRFTISRDDSKNSIYLQMNSLKTEDTAVYYCHYVHYASASTVLPAFGVDAWGQGTTVTVSS
VL: DIVMTQSPLSLPVTPGEPASISCQASQELVHMNRNTYLHWYQQKPGQAPRLLIYKVSNRFPGVPDRFSGSGSGTDFTLKISRVEAEDVGVYYCAQGESVPFTFGQGTKLEIK
B4: H183/L072 VL T31S (antibody, name in Kabat numbering, V domains shown)
VH: QVQLVESGGGLVQPGRSLRLSCAASGFTFSNAWMHWVRQAPGKGLEWVAQIKDKGNAYAAYYAPSVKGRFTISRDDSKNSIYLQMNSLKTEDTAVYYCHYVHYASASTVLPAFGVDAWGQGTTVTVSS
VL: DIVMTQSPLSLPVTPGEPASISCQASQELVHMNRNSYLHWYQQKPGQAPRLLIYKVSNRFPGVPDRFSGSGSGTDFTLKISRVEAEDVGVYYCAQGTSVPFTFGQGTKLEIK
B5: H183/L072 VL T31Q (antibody, name in Kabat numbering, V domains shown)
VH: QVQLVESGGGLVQPGRSLRLSCAASGFTFSNAWMHWVRQAPGKGLEWVAQIKDKGNAYAAYYAPSVKGRFTISRDDSKNSIYLQMNSLKTEDTAVYYCHYVHYASASTVLPAFGVDAWGQGTTVTVSS
VL: DIVMTQSPLSLPVTPGEPASISCQASQELVHMNRNQYLHWYQQKPGQAPRLLIYKVSNRFPGVPDRFSGSGSGTDFTLKISRVEAEDVGVYYCAQGTSVPFTFGQGTKLEIK
B6: H183/L072 VL T31R (antibody, name in Kabat numbering, V domains shown)
VH: QVQLVESGGGLVQPGRSLRLSCAASGFTFSNAWMHWVRQAPGKGLEWVAQIKDKGNAYAAYYAPSVKGRFTISRDDSKNSIYLQMNSLKTEDTAVYYCHYVHYASASTVLPAFGVDAWGQGTTVTVSS
VL: DIVMTQSPLSLPVTPGEPASISCQASQELVHMNRNRYLHWYQQKPGQAPRLLIYKVSNRFPGVPDRFSGSGSGTDFTLKISRVEAEDVGVYYCAQGTSVPFTFGQGTKLEIK
B7: H183/L072 VL T31N (antibody, name in Kabat numbering, V domains shown)
VH: QVQLVESGGGLVQPGRSLRLSCAASGFTFSNAWMHWVRQAPGKGLEWVAQIKDKGNAYAAYYAPSVKGRFTISRDDSKNSIYLQMNSLKTEDTAVYYCHYVHYASASTVLPAFGVDAWGQGTTVTVSS
VL: DIVMTQSPLSLPVTPGEPASISCQASQELVHMNRNNYLHWYQQKPGQAPRLLIYKVSNRFPGVPDRFSGSGSGTDFTLKISRVEAEDVGVYYCAQGTSVPFTFGQGTKLEIK
B8: H183/L072 VL T92G (antibody, name in Kabat numbering, V domains shown)
VH: QVQLVESGGGLVQPGRSLRLSCAASGFTFSNAWMHWVRQAPGKGLEWVAQIKDKGNAYAAYYAPSVKGRFTISRDDSKNSIYLQMNSLKTEDTAVYYCHYVHYASASTVLPAFGVDAWGQGTTVTVSS
VL: DIVMTQSPLSLPVTPGEPASISCQASQELVHMNRNTYLHWYQQKPGQAPRLLIYKVSNRFPGVPDRFSGSGSGTDFTLKISRVEAEDVGVYYCAQGGSVPFTFGQGTKLEIK
B9: H183/L072 VL T92A (antibody, name in Kabat numbering, V domains shown)
VH: QVQLVESGGGLVQPGRSLRLSCAASGFTFSNAWMHWVRQAPGKGLEWVAQIKDKGNAYAAYYAPSVKGRFTISRDDSKNSIYLQMNSLKTEDTAVYYCHYVHYASASTVLPAFGVDAWGQGTTVTVSS
VL: DIVMTQSPLSLPVTPGEPASISCQASQELVHMNRNTYLHWYQQKPGQAPRLLIYKVSNRFPGVPDRFSGSGSGTDFTLKISRVEAEDVGVYYCAQGASVPFTFGQGTKLEIK
B10: H183/L072 VL T92H (antibody, name in Kabat numbering, V domains shown)
VH: QVQLVESGGGLVQPGRSLRLSCAASGFTFSNAWMHWVRQAPGKGLEWVAQIKDKGNAYAAYYAPSVKGRFTISRDDSKNSIYLQMNSLKTEDTAVYYCHYVHYASASTVLPAFGVDAWGQGTTVTVSS
VL: DIVMTQSPLSLPVTPGEPASISCQASQELVHMNRNTYLHWYQQKPGQAPRLLIYKVSNRFPGVPDRFSGSGSGTDFTLKISRVEAEDVGVYYCAQGHSVPFTFGQGTKLEIK
B11: H183/L072 VL T92F (antibody, name in Kabat numbering, V domains shown)
VH: QVQLVESGGGLVQPGRSLRLSCAASGFTFSNAWMHWVRQAPGKGLEWVAQIKDKGNAYAAYYAPSVKGRFTISRDDSKNSIYLQMNSLKTEDTAVYYCHYVHYASASTVLPAFGVDAWGQGTTVTVSS
VL: DIVMTQSPLSLPVTPGEPASISCQASQELVHMNRNTYLHWYQQKPGQAPRLLIYKVSNRFPGVPDRFSGSGSGTDFTLKISRVEAEDVGVYYCAQGFSVPFTFGQGTKLEIK
B12: H183/L072 VL T92L (antibody, name in Kabat numbering, V domains shown)
VH: QVQLVESGGGLVQPGRSLRLSCAASGFTFSNAWMHWVRQAPGKGLEWVAQIKDKGNAYAAYYAPSVKGRFTISRDDSKNSIYLQMNSLKTEDTAVYYCHYVHYASASTVLPAFGVDAWGQGTTVTVSS
VL: DIVMTQSPLSLPVTPGEPASISCQASQELVHMNRNTYLHWYQQKPGQAPRLLIYKVSNRFPGVPDRFSGSGSGTDFTLKISRVEAEDVGVYYCAQGLSVPFTFGQGTKLEIK
B13: H183/L072 VL T31L (antibody, name in Kabat numbering, V domains shown)
VH: QVQLVESGGGLVQPGRSLRLSCAASGFTFSNAWMHWVRQAPGKGLEWVAQIKDKGNAYAAYYAPSVKGRFTISRDDSKNSIYLQMNSLKTEDTAVYYCHYVHYASASTVLPAFGVDAWGQGTTVTVSS
VL: DIVMTQSPLSLPVTPGEPASISCQASQELVHMNRNLYLHWYQQKPGQAPRLLIYKVSNRFPGVPDRFSGSGSGTDFTLKISRVEAEDVGVYYCAQGTSVPFTFGQGTKLEIK
B14: H183/L072 VL T92K (antibody, name in Kabat numbering, V domains shown)
VH: QVQLVESGGGLVQPGRSLRLSCAASGFTFSNAWMHWVRQAPGKGLEWVAQIKDKGNAYAAYYAPSVKGRFTISRDDSKNSIYLQMNSLKTEDTAVYYCHYVHYASASTVLPAFGVDAWGQGTTVTVSS
VL: DIVMTQSPLSLPVTPGEPASISCQASQELVHMNRNTYLHWYQQKPGQAPRLLIYKVSNRFPGVPDRFSGSGSGTDFTLKISRVEAEDVGVYYCAQGKSVPFTFGQGTKLEIK
B15: H183/L072 VL T92D (antibody, name in Kabat numbering, V domains shown)
VH: QVQLVESGGGLVQPGRSLRLSCAASGFTFSNAWMHWVRQAPGKGLEWVAQIKDKGNAYAAYYAPSVKGRFTISRDDSKNSIYLQMNSLKTEDTAVYYCHYVHYASASTVLPAFGVDAWGQGTTVTVSS
VL: DIVMTQSPLSLPVTPGEPASISCQASQELVHMNRNTYLHWYQQKPGQAPRLLIYKVSNRFPGVPDRFSGSGSGTDFTLKISRVEAEDVGVYYCAQGDSVPFTFGQGTKLEIK

Biological target: T1, Human CD3eg linker (human)
T1 construct: Single-chain construct; also called recombinant human CD3
T1 chain: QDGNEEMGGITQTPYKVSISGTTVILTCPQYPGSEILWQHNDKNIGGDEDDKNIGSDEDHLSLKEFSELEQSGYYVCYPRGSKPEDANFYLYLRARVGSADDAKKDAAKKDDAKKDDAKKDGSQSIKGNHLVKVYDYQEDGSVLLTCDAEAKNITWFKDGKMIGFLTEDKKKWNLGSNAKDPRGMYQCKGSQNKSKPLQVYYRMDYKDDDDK
Test: SPR; fold vs parent H183/L072

Point of comparison: B13, “fold change of affinity” value 0 fold. Against it:
- B1 — higher, 0.4 fold
- B2 — higher, 0.7 fold
- B3 — the same, 0 fold
- B4 — higher, 0.5 fold
- B5 — higher, 0.4 fold
- B6 — higher, 0.4 fold
- B7 — the same, 0 fold
- B8 — higher, 0.2 fold
- B9 — higher, 0.1 fold
- B10 — higher, 0.2 fold
- B11 — higher, 0.3 fold
- B12 — higher, 0.3 fold
- B14 — higher, 0.8 fold
- B15 — the same, 0 fold
